Our source for the Kd values is patent US20100292444A1 (published 2010).

This experiment concerns the target T1, Ser-PRLR (1-210) (UniProt P16471 25-234).
T1 construct: range 1-210; also called PRL receptor; prolactin receptor
T1 sequence: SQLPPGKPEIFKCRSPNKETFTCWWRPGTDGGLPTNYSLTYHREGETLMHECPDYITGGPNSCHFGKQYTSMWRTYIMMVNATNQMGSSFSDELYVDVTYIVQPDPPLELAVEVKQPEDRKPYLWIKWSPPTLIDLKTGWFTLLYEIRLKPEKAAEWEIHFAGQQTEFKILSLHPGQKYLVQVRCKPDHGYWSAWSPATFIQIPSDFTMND
As to the kind of experiment: SPR (Biacore 3000): Ser-PRLR (1-210) amine-coupled to a CM5 chip, analogue injected at 500 nM. The method, then:
Ser-PRLR (1-210) (25 μg/ml in 10 mM sodium acetate, pH 3.0), was injected into a Biacore 3000 instrument at a flow rate of 5 μl/min and coupled to a CM5 sensor chip by amine coupling chemistry. […] Data evaluation was performed in BiaEvaluation 4.1. Regeneration was accomplished with 4.5 M MgCl₂ between runs.
The PRL receptor binding affinity of G129R-PRL was compared to that of N56D,G129R-PRL (corresponding to the deamidated form of G129R-PRL), using the Biacore-assay. […] Thus, deamidation of […] markedly reduces the receptor binding affinity

B1: G129R-PRL (ligand)
chain: LPICPGGAARCQVTLRDLFDRAVVLSHYIHNLSSEMFSEFDKRYTHGRGFITKAINSCHTSSLATPEDKEQAQQMNQKDFLSLIVSILRSWNEPLYHLVTEVRGMQEAPEAILSKAVEIEEQTKRLLERMELIVSQVHPETKENEIYPVWSGLPSLQMADEESRLSAYYNLLHCLRRDSHKIDNYLKLLKCRIIHNNNC
notes: also called G129R-hPRL
B1: the Kd (commonly a measure of binding affinity in units of concentration) was 0.027 µM.

B2: N56D,G129R-PRL (ligand)
chain: LPICPGGAARCQVTLRDLFDRAVVLSHYIHNLSSEMFSEFDKRYTHGRGFITKAIDSCHTSSLATPEDKEQAQQMNQKDFLSLIVSILRSWNEPLYHLVTEVRGMQEAPEAILSKAVEIEEQTKRLLERMELIVSQVHPETKENEIYPVWSGLPSLQMADEESRLSAYYNLLHCLRRDSHKIDNYLKLLKCRIIHNNNC
notes: Recombinant mutant that mimics G129R-PRL deamidated at Asn-56; also called deamidated form of G129R-PRL
Consider B2, for which the affinity, expressed as Kd, was 0.313 µM.
